First the molecules themselves.
B1: Activin A, P08476 311-426 (ligand)
chain: GLECDGKVNICCKKQFFVSFKDIGWNDWIIAPSGYHANYCEGECPSHIAGTSGSSLSFHSTVINHYRMRGHSPFANLKSCCVPTKLRPMSMLYYDDGQNIIKKDIQNMIVEECGCS
B2: Activin AB, P08476 311-426; P09529 293-407 (ligand)
chain 1: GLECDGKVNICCKKQFFVSFKDIGWNDWIIAPSGYHANYCEGECPSHIAGTSGSSLSFHSTVINHYRMRGHSPFANLKSCCVPTKLRPMSMLYYDDGQNIIKKDIQNMIVEECGCS
chain 2: GLECDGRTNLCCRQQFFIDFRLIGWNDWIIAPTSYYGNYCEGSCPAYLAGVPGSASSFHTAVVNQYRMRGLNPGTVNSCCIPTKLSTMSMLYFDDEYNIVKRDVPNMIVEECGCA
B3: Activin AC, P55103 237-352 (ligand, human)
chain 1: GLECDGKVNICCKKQFFVSFKDIGWNDWIIAPSGYHANYCEGECPSHIAGTSGSSLSFHSTVINHYRMRGHSPFANLKSCCVPTKLRPMSMLYYDDGQNIIKKDIQNMIVEECGCS
chain 2: GIDCQGGSRMCCRQEFFVDFREIGWHDWIIQPEGYAMNFCIGQCPLHIAGMPGIAASFHTAVLNLLKANTAAGTTGGGSCCVPTARRPLSLLYYDRDSNIVKTDIPDMVVEACGCS
B4: Activin B, P09529 293-407 (ligand)
chain: GLECDGRTNLCCRQQFFIDFRLIGWNDWIIAPTSYYGNYCEGSCPAYLAGVPGSASSFHTAVVNQYRMRGLNPGTVNSCCIPTKLSTMSMLYFDDEYNIVKRDVPNMIVEECGCA
B5: H4H10429P (antibody, human IgG4, V domains shown)
VH: QVQLVESGGGVVQPGRSLRLSCVASGFTVSSYGIHWVRQAPGKGLEWVSVIWYDGRNKDYADSVKGRFTISRDNSKNTVYLEMKGLRAEDTALYYCARDKTGDFDSWGQGTLVTVSS
VL: DIQMTQSPSSLSASVGDRVTITCRASQNINSFLSWYQQKPGKAPKFLIYDASSIQSGAPSRFSGSGSGTDFTLTISSLQPEDFATYYCQQSYSSPFTFGQGTKLEIK
B6: BMP10 (ligand, human, UniProt O95393 317-424, looked up)
chain: NAKGNYCKRTPLYIDFKEIGWDSWIIAPPGYEAYECRGVCNYPLAEHLTPTKHAIIQALVHLKNSQKASKACCVPTKLEPISILYLDKGVVTYKFKYEGMAVSECGCR
B7: BMP2 (ligand, human, UniProt P12643 283-396, looked up)
chain: QAKHKQRKRLKSSCKRHPLYVDFSDVGWNDWIVAPPGYHAFYCHGECPFPLADHLNSTNHAIVQTLVNSVNSKIPKACCVPTELSAISMLYLDENEKVVLKNYQDMVVEGCGCR
B8: BMP9 (ligand, human, UniProt Q9UK05 320-429, looked up)
chain: SAGAGSHCQKTSLRVNFEDIGWDSWIIAPKEYEAYECKGGCFFPLADDVTPTKHAIVQTLVHLKFPTKVGKACCVPTKLSPISVLYKDDMGVPTLKYHYEGMSVAECGCR
B9: BMP4 (ligand, human, UniProt P12644 293-408, looked up)
chain: SPKHHSQRARKKNKNCRRHSLYVDFSDVGWNDWIVAPPGYQAFYCHGDCPFPLADHLNSTNHAIVQTLVNSVNSSIPKACCVPTELSAISMLYLDEYDKVVLKNYQEMVVEGCGCR

Sequence of hBMP7 (human) (P18075 293-431 limits assumed): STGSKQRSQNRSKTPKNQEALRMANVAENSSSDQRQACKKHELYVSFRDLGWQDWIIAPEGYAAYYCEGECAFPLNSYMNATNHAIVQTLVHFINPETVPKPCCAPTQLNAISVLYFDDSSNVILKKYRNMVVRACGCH

The target of one assay is activin Type II receptors. The assay is described as follows: cell-based or functional assay.
B1 registered an EC50, activation of A204/CAGAx12-Luc cells (Smad 2/3-luciferase reporter) of 0.099 nM.
For the molecule B2, the EC50, activation of A204/CAGAx12-Luc cells (Smad 2/3-luciferase reporter) turned out to be 0.019 nM.
Same read-out and setting: under B3 stands 4.4 nM; under B4, 0.047 nM.

The next assay has as its target hBMP7 (human) (UniProt P18075). The assay is described as follows: SPR (Biacore 4000), captured on anti-human Fc, 200 nM ligand injected, 37 C. On the technique in general: In SPR one partner is held on a chip, and binding of the other changes the refractive index at the surface.
For B5, the binding response (resonance units) for 200 nM ligand came out at 9.2 RU.

A further assay addresses BMP receptor types I and II (on W-20-17/BRE-luc cells). The assay can be described thus: cell-based or functional assay.
The molecule B6 yielded an EC50 [M]; activation of W-20-17/BRE-luc luciferase reporter cells of 2.5e-09 M.
B7 gave an EC50 [M]; activation of W-20-17/BRE-luc luciferase reporter cells of 3.4e-11 M.
Consider B8, for which the EC50 [M]; activation of W-20-17/BRE-luc luciferase reporter cells turned out to be 2.6e-10 M.
B9 showed an EC50 [M]; activation of W-20-17/BRE-luc luciferase reporter cells of 6.3e-11 M.
